From article PMC6602975 come the findings set out here.

This assay deals with H4K16ac nucleosome. Kind of assay: EMSA. The settings on record: chain shown with the change. On the technique in general: In EMSA bound probe runs differently from free probe, usually more slowly.

B1: Sir3 BAH domain (construct 1–214), P06701 D205N (protein)
chain: MAKTLKDLDGWQVIITDDQGRVIDDNNRRRSRKRGGENVFLKRISDGLSFGKGESVIFNDNVTETYSVYLIHEIRLNTLNNVVEIWVFSYLRWFELKPKLYYEQFRPDLIKEDHPLEFYKDKFFNEVNKSELYLTAELSEIWLKDFIAVGQILPESQWNDSSIDKIEDRDFLVRYACEPTAEKFVPIDIFQIIRRVKEMEPKQSNEYLKRVSVP
Regarding B1, the Kd (as a rule, the concentration at which binding is half-saturated) came to 810 nM.
